In paper PMC7802950, “Characteristics and expression patterns of six α-galactosidases in cucumber (Cucumis sativus L.)” (PLoS ONE, 2021):

B1: CsAGA1 (Cucumis sativus) (protein)
chain: MTVGAGITISDANLTVLGNRVLSDVHNNITLTAAPGGGVMNGAFIGVQSDQIGSRRVFPIGKLIGLRFLCAFRFKLWWMTQRMGCSGQEIPFETQFLVVETRDGSNIAGNGEEGDAVYTVFLPILEGDFRAVLQGNDNNELEICLESGDPSVDGFEGSHLVFVGAGSDPFETITYAVKSVEKHLQTFAHRERKKMPDILNWFGWCTWDAFYTDVTSDGVKKGLESFENGGIPPKFVIIDDGWQSVAKDAASTDCKADNTANFANRLTHIKENYKFQKDGKEGERIENPALGLQHIVSYMKEKHATKYVYVWHAITGYWGGVSSGVKEMEQYESKIAYPVASPGVESNEPCDALNSISKTGLGLVNPEKVFNFYNEQHSYLASAGVDGVKVDVQNILETLGAGHGGRVKLARKYHQALEASISRNFQDNGIISCMSHNTDGLYSSKRNAVIRASDDFWPRDPASHTIHIASVAYNSLFLGEFMQPDWDMFHSLHPMAEYHGAARAVGGCAIYVSDKPGQHDFNLLKKLVLHDGSILRAKLPGRPTKDCLFADPARDGKSLLKIWNMNDLSGVVGVFNCQGAGWCKVGKKNLIHDENPDTITGVIRAKDVSYLWKIAGESWTGDAVIFSHLAGEVVYLPQDASMPITLKSREFDVFTVVPVKELANDIKFAPIGLMKMFNSGGAVKEMNHQPGSSNVSLKVRGSGPFGAYSSSKPKRVAVDSEEVEFIYDEGGLITIDLKVPEKELYLWDIRIEL
notes: coding region in pAcHLT, baculovirus/Sf9 insect cells; 6xHis tag removed by thrombin
B2: CsAGA3 (Cucumis sativus) (protein)
chain: MTIKPAVRISDGKLIVKDRTILTGVPDNVIATSGSSSGPVEGVFLGAVFEEEQSRQVVSLGTLRDVRFMACFRFKLWWMAQKMGDKGKEIPLETQFLLLETKDGSHLESDDGNEENQIIYTVFLPLIEGSFRACLQGNGQDELELCLESGDVDTKASSFTHSLFIHAGTDPFDAISDAMKAVKLHLNTFRLRHEKKFPAIVDYFGWCTWDAFYHEVTQDGVEAGLESLTAGGVPPKFVIIDDGWQSVGGDPQEEKEEGDEKQPKQPPLLRLTAIRENSKFQKKEDPTEGIKNIVNIAKNKYGLKYVYVWHAITGYWGGVRTGVKDMEEYGSSMQYPKVSKGVFENEPIWKNDALALQGLGLMNPKNVYKFYNELHSYLASAGIDGVKVDAQSILETLGAGLGGRVELTRQYHQALDASVARNFPDNGIIACMSHHTDAVYCAKQTAVVRASDDFYPRDPVSHTIHIAAVAYNTVFLGEIMVPDWDMFHSLHSAAEYHASARAISGGPVYVSDAPGKHNFELLRKLVLPDGSVLRATLPGRPTRDCLFSDPARDGVSLLKIWNLNKFTGVIGIYNCQGAAWNSQERKNTFHDTNSDAITGYVKGRDVHAISKVAADPDWNGDCAFYRHLSGDLVTLPYNSALPVSLKVLEFDIFTISPIKVLAPGFSFAPIGLIDMYNSGGAIEGLKYEVKGGAKLVEVDGASEGIETASERVENRSSELVAIVHLEVKGCGRFGAYSSAKPRQCIVDSSVVEFGYDSESGLLTLGIDKLPEGDLKYHDVKIEL
notes: as for B1
B3: CsAGA2 (Cucumis sativus) (protein)
chain: MTVTPKITVNDGNLVVHGKTILTGVPDNIVLTPGSGLGLVAGAFIGATASNSKSLHVFPVGVLEGTRFLCCFRFKLWWMTQRMGTSGRDIPFETQFLLMESQGNDGEDPDNSSTIYTVFLPLLEGQFRAALQGNEKNEMEICLESGDNTVETNQGLSLVYMHAGTNPFEVITQAVKAVEKHTQTFLHREKKKLPSFLDWFGWCTWDAFYTDVTAEGVVEGLQSLSDGGAPPKFLIIDDGWQQIEAKPKDADCVVQEGAQFASRLSGIKENHKFQKNGNNYDQVPGLKVVVDDAKKQHKVKFVYAWHALAGYWGGVKPASPGMEHYDSALAYPVQSPGMLGNQPDIVVDSLAVHGIGLVHPKKVFNFYNELHSYLASCGIDGVKVDVQNIIETLGAGHGGRVTLTRSYHQALEASIARNFSDNGCIACMCHNTDSLYSAKQTAVVRASDDYYPRDPASHTIHISSVAYNSLFLGEFMQPDWDMFHSLHPTAEYHGAARAIGGCAIYVSDKPGNHNFDLLKKLVLPDGSVLRAQLPGRPTRDSLFNDPARDGTSLLKIWNMNKCSGVVGVFNCQGAGWCRITKKTRIHDESPGTLTTSVRAADVDAISQVAGADWKGDTIVYAYRSGDLTRLPKGASVPVTLKVLEYDLFHISPLKDITSNISFAPIGLVDMFNIGGAVEQVDIQVVEPIPEFDGEVASELTCSLPDDRPPTATITMKARGCGRFGLYSSQRPLKCSVDKVGTDFVYDDVTGLVTFEIPIPTEEMYRWNIEIEV
notes: as for B1

Each protein was assayed on O=[N+]([O-])c1ccc(O[C@H]2O[C@H](CO)[C@H](O)[C@H](O)[C@H]2O)cc1 (assay: purified protein). Details: pH and temperature of Km assay not stated.
B1 gave a Km of 1.81 ± 0.39 mM. B2 showed a Km of 1.24 ± 0.17 mM. With B3 the Km was 2.21 ± 0.28 mM.

The proteins below were run on OC[C@H]1O[C@H](OC[C@H]2O[C@H](OC[C@H]3O[C@H](O[C@]4(CO)O[C@H](CO)[C@@H](O)[C@@H]4O)[C@H](O)[C@@H](O)[C@@H]3O)[C@H](O)[C@@H](O)[C@H]2O)[C@H](O)[C@@H](O)[C@H]1O (assay: Lineweaver-Burk plot, hydrolysis). Details: pH and temperature of Km assay not stated.
Assay type: biochemical, Cucumis sativus
For B1, the Km was 3.76 ± 0.89 mM. For B2, the Km was 3.26 ± 0.76 mM. In the case of B3, the Km is reported as 5.23 ± 1.23 mM.

The proteins below were run on OC[C@H]1O[C@H](OC[C@H]2O[C@H](O[C@]3(CO)O[C@H](CO)[C@@H](O)[C@@H]3O)[C@H](O)[C@@H](O)[C@@H]2O)[C@H](O)[C@@H](O)[C@H]1O (assay: Lineweaver-Burk plot, hydrolysis). Details: pH and temperature of Km assay not stated.
Assay type: biochemical, Cucumis sativus
For B1, the Km was 2.08 ± 0.51 mM. In the case of B2, the Km is reported as 22.47 ± 1.87 mM. Work on B3 yielded a Km of 30.4 ± 2.85 mM.
